Results from publication PMC5401905, “Regulation of Inducible Potassium Transporter KdpFABC by the KdpD/KdpE Two-Component System in Mycobacterium smegmatis”.

Key:
[1] = molecular target: T1, KdpE (Mycobacterium smegmatis) (UniProt A0R399); experiment: EMSA; conditions: 10 mM Tris pH 7.5 (20 C), 100 mM KCl, 1 mM EDTA, 0.1 mM DTT, 5% glycerol, 0.010 mg/mL BSA, 0.5 mM Na2ATP; 25 C, 1 h; 6% native PAGE in 0.25x TBE
T1 sequence: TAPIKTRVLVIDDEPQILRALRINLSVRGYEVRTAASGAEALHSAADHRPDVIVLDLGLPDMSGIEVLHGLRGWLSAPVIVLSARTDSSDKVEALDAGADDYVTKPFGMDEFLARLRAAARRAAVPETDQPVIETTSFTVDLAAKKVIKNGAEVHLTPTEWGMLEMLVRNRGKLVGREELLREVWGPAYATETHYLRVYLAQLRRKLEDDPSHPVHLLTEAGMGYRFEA

[2] = molecular target: T1, KdpE (Mycobacterium smegmatis); experiment: competition; conditions: 10 mM Tris pH 7.5 (20 C), 100 mM KCl, 1 mM EDTA, 0.1 mM DTT, 5% glycerol, 0.010 mg/mL BSA, 0.5 mM Na2ATP; 25 C, 1 h; 6% native PAGE in 0.25x TBE
[3] = molecular target: T1, KdpE (Mycobacterium smegmatis); experiment: DNase I footprinting; conditions: 10 mM Tris pH 7.5 (20 C), 100 mM KCl, 1 mM EDTA, 0.1 mM DTT, 5% glycerol, 0.010 mg/mL BSA, 0.5 mM Na2ATP; 25 C, 1 h; 6% native PAGE in 0.25x TBE
KdpE = molecular target: T2, KdpE (Mycobacterium smegmatis, UniProt A0R399 2-230); experiment: EMSA; 0.5 mM ATP; 10 mM Tris pH 7.5 (20 C), 100 mM KCl, 1 mM EDTA, 0.1 mM DTT, 5% glycerol, 0.010 mg/mL BSA, 0.5 mM Na2ATP; 25 C, 1 h; 6% native PAGE in 0.25x TBE; conditions: protein: recombinant; tags: 6xHis (pET28a); chain copies: 2; blunt
T2 sequence: T1 sequence

Molecule: CCCGAGGCGCCGGCGCCCGGCCGAGCAGGTGCGTCGGGTGTCGGCAGGCGCGGCAGCCCGCGGAGCAAGCAGGGACATGAGCTTCGTCGAGTGGGTCACCCCTCGAACATCCATCAACCGAGCCATGACGACGAGTGTCCTGGCGGAGTCTTGGCCGCTGCTGTACAAACCTTGACGCCGCACTGACAGTCCGTCGGGAACCGCCTGTGCGCCGGCTTCGAACAAACGGTGTCAAATACGGCCGCCGCACCGTAAAGAAACCATCAAGGCCGCGTTCGCGGTCCTGAACTGGGCAGATCC (double strand) [PkdpF 300-bp probe]
- binding [1]: binds
- binding [2]: binds
- binding [3]: binds

B1: FPC-22 (dsDNA)
DNA 1: CCGTAAAGAAACCATCAAGGCC
DNA 2: GGCCTTGATGGTTTCTTTACGG
- binding result (KdpE): binds

B2: FPC-18 (dsDNA)
DNA 1: AAGAAACCATCAAGGCCG
DNA 2: CGGCCTTGATGGTTTCTT
- binding result (KdpE): no binding

B3: FPC-28 (dsDNA)
DNA 1: CCGTAAAGAAACCATCAAGGCCGCGTTC
DNA 2: GAACGCGGCCTTGATGGTTTCTTTACGG
- binding result (KdpE): binds

B4: FPC-33 (dsDNA)
DNA 1: ACCGTAAAGAAACCATCAAGGCCGCGTTCGCGG
DNA 2: CCGCGAACGCGGCCTTGATGGTTTCTTTACGGT
- binding result (KdpE): binds
